Data as given in IntAct's records for PubMed 32296183.

B1: Catenin alpha-3 (Homo sapiens), Q9UI47-2 (parent)
chain: MSAETPITLNIDPQDLQVQTFTVEKLLEPLIIQVTTLVNCPQNPSSRKKGRSKRASVLLASVEEATWNLLDKGEKIAQEATVLKDELTASLEEVRKESEALKVSAERFTDDPCFLPKREAVVQAARALLAAVTRLLILADMIDVMCLLQHVSAFQRTFESLKNVANKSDLQKTYQKLGKELENLDYLAFKRQQDLKSPNQRDEIAGARASLKENSPLLHSICSACLEHSDVASLKASKDTVCEEIQNALNVISNASQGIQNMTTPPEPQAATLGSALDELENLIVLNPLTVTEEEIRPSLEKRLEAIISGAALLADSSCTRDLHRERIIAECNAIRQALQDLLSEYMNNAGKKERSNTLNIALDNMCKKTRDLRRQLRKAIIDHVSDSFLDTTVPLLVLIEAAKNGREKEIKEYAAIFHEHTSRLVEVANLACSMSTNEDGIKIVKIAANHLETLCPQIINAALALAARPKSQAVKNTMEMYKRTWENHIHVLTEAVDDITSIDDFLAVSGMFLFF
partner: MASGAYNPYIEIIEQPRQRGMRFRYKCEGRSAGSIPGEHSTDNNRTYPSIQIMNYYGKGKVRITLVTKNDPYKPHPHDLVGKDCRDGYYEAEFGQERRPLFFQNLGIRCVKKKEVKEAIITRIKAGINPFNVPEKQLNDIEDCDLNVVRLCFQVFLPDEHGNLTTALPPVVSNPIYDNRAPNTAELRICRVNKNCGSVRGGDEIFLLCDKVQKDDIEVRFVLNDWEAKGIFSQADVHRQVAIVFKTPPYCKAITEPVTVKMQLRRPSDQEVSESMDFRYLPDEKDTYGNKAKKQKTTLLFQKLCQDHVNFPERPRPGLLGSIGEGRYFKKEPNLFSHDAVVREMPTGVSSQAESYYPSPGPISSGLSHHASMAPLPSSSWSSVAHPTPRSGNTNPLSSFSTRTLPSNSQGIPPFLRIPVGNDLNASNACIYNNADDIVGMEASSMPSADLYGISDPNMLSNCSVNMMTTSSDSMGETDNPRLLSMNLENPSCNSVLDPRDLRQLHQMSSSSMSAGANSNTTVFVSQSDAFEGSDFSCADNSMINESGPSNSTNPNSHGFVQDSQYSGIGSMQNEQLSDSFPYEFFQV
B2: Catenin alpha-3 (Homo sapiens), Q9UI47-2 (parent)
chain: B1 chain
partner: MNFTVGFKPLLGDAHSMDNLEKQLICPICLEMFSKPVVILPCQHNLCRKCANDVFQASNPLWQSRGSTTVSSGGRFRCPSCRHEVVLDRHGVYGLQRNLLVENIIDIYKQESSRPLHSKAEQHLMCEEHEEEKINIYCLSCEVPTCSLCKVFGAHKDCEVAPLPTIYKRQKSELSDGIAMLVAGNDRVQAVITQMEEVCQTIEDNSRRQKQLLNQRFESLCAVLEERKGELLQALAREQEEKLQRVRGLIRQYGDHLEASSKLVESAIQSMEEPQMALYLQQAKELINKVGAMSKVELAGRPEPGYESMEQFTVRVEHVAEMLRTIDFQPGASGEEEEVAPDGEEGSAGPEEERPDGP
B3: Catenin alpha-3 (Homo sapiens), Q9UI47-2 (parent)
chain: B1 chain
partner: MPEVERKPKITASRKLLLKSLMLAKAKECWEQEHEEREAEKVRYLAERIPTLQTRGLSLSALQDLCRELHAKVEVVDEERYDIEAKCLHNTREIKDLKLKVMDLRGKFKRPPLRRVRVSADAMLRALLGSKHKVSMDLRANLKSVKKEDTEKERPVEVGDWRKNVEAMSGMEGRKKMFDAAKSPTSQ
B4: Catenin alpha-3 (Homo sapiens), Q9UI47-2 (parent)
chain: B1 chain
partner: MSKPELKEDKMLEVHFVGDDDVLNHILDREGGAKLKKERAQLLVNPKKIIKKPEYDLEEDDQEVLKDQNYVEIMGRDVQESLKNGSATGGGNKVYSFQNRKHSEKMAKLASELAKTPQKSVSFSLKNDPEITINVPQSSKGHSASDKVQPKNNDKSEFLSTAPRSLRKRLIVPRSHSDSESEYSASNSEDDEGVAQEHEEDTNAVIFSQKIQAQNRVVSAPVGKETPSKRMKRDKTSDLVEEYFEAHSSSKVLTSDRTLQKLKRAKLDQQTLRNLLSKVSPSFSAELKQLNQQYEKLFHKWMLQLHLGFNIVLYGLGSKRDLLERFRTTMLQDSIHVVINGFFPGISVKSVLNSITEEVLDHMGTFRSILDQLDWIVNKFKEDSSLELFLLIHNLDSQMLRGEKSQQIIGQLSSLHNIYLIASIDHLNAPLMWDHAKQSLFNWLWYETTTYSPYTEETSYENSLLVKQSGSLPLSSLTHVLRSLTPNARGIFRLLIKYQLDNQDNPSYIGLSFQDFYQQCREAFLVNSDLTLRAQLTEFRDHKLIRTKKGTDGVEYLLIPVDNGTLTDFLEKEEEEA

Variants of: B1
Settings: with REL

With MSAETPITLNIDPQDLQVQTFTVEKLLEPLIIQVTTLVNCPQNPSSRKKGRSKRASVLLASVEEATWNLLDKGEKIAQEATVLKDELTASLEEDRKESEALKVSAERFTDDPCFLPKREAVVQAARALLAAVTRLLILADMIDVMCLLQHVSAFQRTFESLKNVANKSDLQKTYQKLGKELENLDYLAFKRQQDLKSPNQRDEIAGARASLKENSPLLHSICSACLEHSDVASLKASKDTVCEEIQNALNVISNASQGIQNMTTPPEPQAATLGSALDELENLIVLNPLTVTEEEIRPSLEKRLEAIISGAALLADSSCTRDLHRERIIAECNAIRQALQDLLSEYMNNAGKKERSNTLNIALDNMCKKTRDLRRQLRKAIIDHVSDSFLDTTVPLLVLIEAAKNGREKEIKEYAAIFHEHTSRLVEVANLACSMSTNEDGIKIVKIAANHLETLCPQIINAALALAARPKSQAVKNTMEMYKRTWENHIHVLTEAVDDITSIDDFLAVSGMFLFF [V94D] as the variant, how does the “effect of a mutation on the interaction” value read?
Its value is “with no effect”.

Variants of: B2
Settings: with tri54_human TRIM54, Q9BYV2

MSAETPITLNIDPQDLQVQTFTVEKLLEPLIIQVTTLVNCPQNPSSRKKGRSKRASVLLASVEEATWNLLDKGEKIAQEATVLKDELTASLEEDRKESEALKVSAERFTDDPCFLPKREAVVQAARALLAAVTRLLILADMIDVMCLLQHVSAFQRTFESLKNVANKSDLQKTYQKLGKELENLDYLAFKRQQDLKSPNQRDEIAGARASLKENSPLLHSICSACLEHSDVASLKASKDTVCEEIQNALNVISNASQGIQNMTTPPEPQAATLGSALDELENLIVLNPLTVTEEEIRPSLEKRLEAIISGAALLADSSCTRDLHRERIIAECNAIRQALQDLLSEYMNNAGKKERSNTLNIALDNMCKKTRDLRRQLRKAIIDHVSDSFLDTTVPLLVLIEAAKNGREKEIKEYAAIFHEHTSRLVEVANLACSMSTNEDGIKIVKIAANHLETLCPQIINAALALAARPKSQAVKNTMEMYKRTWENHIHVLTEAVDDITSIDDFLAVSGMFLFF [V94D] was tested. Which “effect of a mutation on the interaction” value did it give?
Its value is “disrupting interaction strength”.

Variants of: B3
Settings: with tnni1_human TNNI1, P19237

How did the “effect of a mutation on the interaction” value turn out when MSAETPITLNIDPQDLQVQTFTVEKLLEPLIIQVTTLVNCPQNPSSRKKGRSKRASVLLASVEEATWNLLDKGEKIAQEATVLKDELTASLEEDRKESEALKVSAERFTDDPCFLPKREAVVQAARALLAAVTRLLILADMIDVMCLLQHVSAFQRTFESLKNVANKSDLQKTYQKLGKELENLDYLAFKRQQDLKSPNQRDEIAGARASLKENSPLLHSICSACLEHSDVASLKASKDTVCEEIQNALNVISNASQGIQNMTTPPEPQAATLGSALDELENLIVLNPLTVTEEEIRPSLEKRLEAIISGAALLADSSCTRDLHRERIIAECNAIRQALQDLLSEYMNNAGKKERSNTLNIALDNMCKKTRDLRRQLRKAIIDHVSDSFLDTTVPLLVLIEAAKNGREKEIKEYAAIFHEHTSRLVEVANLACSMSTNEDGIKIVKIAANHLETLCPQIINAALALAARPKSQAVKNTMEMYKRTWENHIHVLTEAVDDITSIDDFLAVSGMFLFF [V94D] was run?
The value was “with no effect”.

Variants of: B4
Settings: with orc2_human ORC2, Q13416

For MSAETPITLNIDPQDLQVQTFTVEKLLEPLIIQVTTLVNCPQNPSSRKKGRSKRASVLLASVEEATWNLLDKGEKIAQEATVLKDELTASLEEDRKESEALKVSAERFTDDPCFLPKREAVVQAARALLAAVTRLLILADMIDVMCLLQHVSAFQRTFESLKNVANKSDLQKTYQKLGKELENLDYLAFKRQQDLKSPNQRDEIAGARASLKENSPLLHSICSACLEHSDVASLKASKDTVCEEIQNALNVISNASQGIQNMTTPPEPQAATLGSALDELENLIVLNPLTVTEEEIRPSLEKRLEAIISGAALLADSSCTRDLHRERIIAECNAIRQALQDLLSEYMNNAGKKERSNTLNIALDNMCKKTRDLRRQLRKAIIDHVSDSFLDTTVPLLVLIEAAKNGREKEIKEYAAIFHEHTSRLVEVANLACSMSTNEDGIKIVKIAANHLETLCPQIINAALALAARPKSQAVKNTMEMYKRTWENHIHVLTEAVDDITSIDDFLAVSGMFLFF [V94D], which “effect of a mutation on the interaction” value is on record?
Its value is “disrupting interaction strength”.
